In PMC9482650, “Quantitative fragmentomics allow affinity mapping of interactomes” (Nature Communications, 2022):

T1: APBA1_2, Q02410
T1 sequence (Q02410 742-832, limits assumed, looked up): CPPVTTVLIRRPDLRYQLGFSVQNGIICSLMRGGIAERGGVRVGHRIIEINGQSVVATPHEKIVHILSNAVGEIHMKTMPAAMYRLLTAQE

T2: APBA2_2, Q99767
T2 sequence (Q99767 654-744, limits assumed, looked up): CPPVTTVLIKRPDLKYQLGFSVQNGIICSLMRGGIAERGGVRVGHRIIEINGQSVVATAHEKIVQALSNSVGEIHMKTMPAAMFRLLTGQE

T3: ARHGAP21, Q5T5U3
T3 sequence (Q5T5U3 45-169, limits assumed, looked up): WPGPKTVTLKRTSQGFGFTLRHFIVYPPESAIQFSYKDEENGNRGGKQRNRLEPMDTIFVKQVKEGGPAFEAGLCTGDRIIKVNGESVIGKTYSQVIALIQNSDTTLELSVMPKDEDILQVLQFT

T4: GRIP1_4, Q9Y3R0
T4 sequence (Q9Y3R0 467-571, limits assumed, looked up): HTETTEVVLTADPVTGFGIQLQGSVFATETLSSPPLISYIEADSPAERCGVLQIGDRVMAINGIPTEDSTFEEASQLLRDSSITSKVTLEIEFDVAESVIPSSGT

T5: MPP2, Q14168
T5 sequence (Q14168 180-250, limits assumed, looked up): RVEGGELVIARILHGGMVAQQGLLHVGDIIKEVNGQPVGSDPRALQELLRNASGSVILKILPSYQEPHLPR

T6: MPP6, Q9NZW5
T6 sequence (Q9NZW5 125-219, limits assumed, looked up): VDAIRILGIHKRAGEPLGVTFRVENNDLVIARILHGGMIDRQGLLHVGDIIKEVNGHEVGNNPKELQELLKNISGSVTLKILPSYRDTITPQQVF

T7: NHERF3_3, Q5T2W1
T7 sequence (Q5T2W1 238-333, limits assumed, looked up): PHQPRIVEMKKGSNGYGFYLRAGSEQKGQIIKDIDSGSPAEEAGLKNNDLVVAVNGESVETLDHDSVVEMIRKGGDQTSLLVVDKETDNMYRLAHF

T8: PCLO, Q9Y6V0
T8 sequence (Q9Y6V0 4491-4600, limits assumed, looked up): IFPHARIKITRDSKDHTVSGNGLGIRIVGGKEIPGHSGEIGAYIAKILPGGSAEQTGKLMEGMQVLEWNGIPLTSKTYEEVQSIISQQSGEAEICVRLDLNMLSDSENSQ

T9: SNTA1, Q13424
T9 sequence (Q13424 82-180, limits assumed, looked up): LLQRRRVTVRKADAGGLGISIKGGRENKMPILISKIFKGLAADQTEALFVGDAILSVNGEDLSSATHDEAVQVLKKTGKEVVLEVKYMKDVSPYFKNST


Key:
Experiment in all cases: holdup assay
Parameters in all cases: key: below the threshold = too weak to quantify, mostly under pKd 3.1 to 4
Conditions in all cases: plain residues with an end cap or a label only (N-terminal biotin on a linker: ado-ado)
APBA1_2, Q02410 = target: T1, APBA1_2, Q02410
APBA2_2, Q99767 = target: T2, APBA2_2, Q99767
ARHGAP21, Q5T5U3 = target: T3, ARHGAP21, Q5T5U3
ARHGEF12, Q9NZN5-2 = target: ARHGEF12, Q9NZN5-2
CASK, O14936 = target: CASK, O14936
DLG1_1, Q12959 = target: DLG1_1, Q12959
DLG2_2, Q15700 = target: DLG2_2, Q15700
DLG4_1, P78352 = target: DLG4_1, P78352
FRMPD2_1, Q68DX3 = target: FRMPD2_1, Q68DX3
FRMPD4, Q14CM0 = target: FRMPD4, Q14CM0
GORASP2, Q9H8Y8 = target: GORASP2, Q9H8Y8
GRID2IP_1, A4D2P6 = target: GRID2IP_1, A4D2P6
GRIP1_4, Q9Y3R0 = target: T4, GRIP1_4, Q9Y3R0
GRIP2_3, Q9C0E4 = target: GRIP2_3, Q9C0E4
IL16_4, Q14005 = target: IL16_4, Q14005
Inadl_2, Q8NI35 = target: Inadl_2, Q8NI35
LIMK2, P53671 = target: LIMK2, P53671
MAGI2_4, Q86UL8 = target: MAGI2_4, Q86UL8
MAGI2_6, Q86UL8 = target: MAGI2_6, Q86UL8
MAGI3_2, Q5TCQ9 = target: MAGI3_2, Q5TCQ9
MPP2, Q14168 = target: T5, MPP2, Q14168
MPP6, Q9NZW5 = target: T6, MPP6, Q9NZW5
NHERF2_2, Q15599 = target: NHERF2_2, Q15599
NHERF3_3, Q5T2W1 = target: T7, NHERF3_3, Q5T2W1
PCLO, Q9Y6V0 = target: T8, PCLO, Q9Y6V0
PDLIM1, O00151 = target: PDLIM1, O00151
SNTA1, Q13424 = target: T9, SNTA1, Q13424
TJP2_1, Q9UDY2 = target: TJP2_1, Q9UDY2
Chain of TJP2_1, Q9UDY2 (Q9UDY2 24-128): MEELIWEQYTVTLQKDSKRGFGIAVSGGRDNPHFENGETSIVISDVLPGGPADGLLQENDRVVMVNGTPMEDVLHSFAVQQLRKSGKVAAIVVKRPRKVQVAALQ

Chain of Inadl_2, Q8NI35 (Q8NI35 238-335): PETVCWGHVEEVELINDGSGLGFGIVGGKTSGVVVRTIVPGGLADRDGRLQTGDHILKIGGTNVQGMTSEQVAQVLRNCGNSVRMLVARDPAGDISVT
Chain of LIMK2, P53671 (P53671 143-248): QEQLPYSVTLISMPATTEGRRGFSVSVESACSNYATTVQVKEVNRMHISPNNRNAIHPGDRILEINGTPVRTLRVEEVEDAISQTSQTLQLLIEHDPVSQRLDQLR
Chain of CASK, O14936 (O14936 487-570): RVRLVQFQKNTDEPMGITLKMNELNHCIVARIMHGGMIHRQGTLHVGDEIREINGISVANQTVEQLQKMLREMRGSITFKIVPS
Chain of DLG4_1, P78352 (P78352 62-152): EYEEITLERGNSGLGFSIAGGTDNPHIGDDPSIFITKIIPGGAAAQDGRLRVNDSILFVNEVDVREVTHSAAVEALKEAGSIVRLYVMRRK
Chain of MAGI2_4, Q86UL8 (Q86UL8 772-865): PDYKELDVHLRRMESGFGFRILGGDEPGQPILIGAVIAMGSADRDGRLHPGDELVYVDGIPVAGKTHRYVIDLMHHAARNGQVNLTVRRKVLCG
Chain of MAGI2_6, Q86UL8 (Q86UL8 1141-1229): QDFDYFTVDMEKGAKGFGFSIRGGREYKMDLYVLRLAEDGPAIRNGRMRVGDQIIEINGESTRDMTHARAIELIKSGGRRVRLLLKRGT
Chain of ARHGEF12, Q9NZN5-2 (Q9NZN5 other isoform, or with tags, fused parts or gaps): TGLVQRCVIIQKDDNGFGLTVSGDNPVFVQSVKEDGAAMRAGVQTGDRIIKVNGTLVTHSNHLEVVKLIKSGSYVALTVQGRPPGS
Chain of GRID2IP_1, A4D2P6 (A4D2P6 1-87): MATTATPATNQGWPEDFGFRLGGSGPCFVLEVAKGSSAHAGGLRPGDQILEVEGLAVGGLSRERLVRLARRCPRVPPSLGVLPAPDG
Chain of NHERF2_2, Q15599 (Q15599 142-238): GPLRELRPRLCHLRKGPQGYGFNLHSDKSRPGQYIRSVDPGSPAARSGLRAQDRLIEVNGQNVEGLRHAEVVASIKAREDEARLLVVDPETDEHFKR
Chain of FRMPD4, Q14CM0 (Q14CM0 67-160): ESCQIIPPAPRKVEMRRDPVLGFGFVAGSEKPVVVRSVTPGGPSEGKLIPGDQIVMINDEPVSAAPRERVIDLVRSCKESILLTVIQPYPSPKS
Chain of FRMPD2_1, Q68DX3 (Q68DX3 770-861): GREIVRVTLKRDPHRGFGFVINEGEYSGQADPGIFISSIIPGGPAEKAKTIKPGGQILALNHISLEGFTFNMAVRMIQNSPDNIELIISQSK
Chain of PDLIM1, O00151 (O00151 1-87): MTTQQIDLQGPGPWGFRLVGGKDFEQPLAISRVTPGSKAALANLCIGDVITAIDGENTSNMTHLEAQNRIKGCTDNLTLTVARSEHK
Chain of GRIP2_3, Q9C0E4 (Q9C0E4 238-339): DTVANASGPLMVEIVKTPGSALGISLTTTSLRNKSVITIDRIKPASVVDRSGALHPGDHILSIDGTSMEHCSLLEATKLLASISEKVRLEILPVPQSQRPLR
Chain of MAGI3_2, Q5TCQ9 (Q5TCQ9 398-503): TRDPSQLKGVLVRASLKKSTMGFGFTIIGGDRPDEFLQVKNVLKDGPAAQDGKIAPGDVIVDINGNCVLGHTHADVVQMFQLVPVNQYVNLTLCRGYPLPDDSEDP
Chain of DLG2_2, Q15700 (Q15700 189-283): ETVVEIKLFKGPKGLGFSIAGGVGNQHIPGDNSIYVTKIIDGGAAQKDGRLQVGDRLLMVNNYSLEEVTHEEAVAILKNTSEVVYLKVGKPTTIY
Chain of IL16_4, Q14005 (Q14005 1229-1329): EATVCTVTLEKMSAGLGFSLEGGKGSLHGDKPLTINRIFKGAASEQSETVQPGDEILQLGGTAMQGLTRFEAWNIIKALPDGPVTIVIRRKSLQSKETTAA

Binder	pKd (APBA1_2, Q02410)	pKd (APBA2_2, Q99767)	pKd (ARHGAP21, Q5T5U3)	pKd (ARHGEF12, Q9NZN5-2)	pKd (CASK, O14936)	pKd (DLG1_1, Q12959)	pKd (DLG2_2, Q15700)	pKd (DLG4_1, P78352)	pKd (FRMPD2_1, Q68DX3)	pKd (FRMPD4, Q14CM0)	pKd (GORASP2, Q9H8Y8)	pKd (GRID2IP_1, A4D2P6)	pKd (GRIP1_4, Q9Y3R0)	pKd (GRIP2_3, Q9C0E4)	pKd (IL16_4, Q14005)	pKd (Inadl_2, Q8NI35)	pKd (LIMK2, P53671)	pKd (MAGI2_4, Q86UL8)	pKd (MAGI2_6, Q86UL8)	pKd (MAGI3_2, Q5TCQ9)	further results
REVVMRVTTV [MARCHF9, Q86YJ5]	3.77	below the threshold	below the threshold	4.8	3.5	5.24	5.2	5.06	below the threshold	below the threshold	5.53	below the threshold	below the threshold	below the threshold	3.53	below the threshold	below the threshold	4.77	4.4	5.16	pKd (MPP2, Q14168): below the threshold; pKd (MPP6, Q9NZW5): 3.63; pKd (NHERF2_2, Q15599): below the threshold; pKd (NHERF3_3, Q5T2W1): below the threshold; pKd (PCLO, Q9Y6V0): below the threshold; pKd (PDLIM1, O00151): below the threshold; pKd (SNTA1, Q13424): 5.27; pKd (TJP2_1, Q9UDY2): 3.92
QELLEYETTV [XKR7, Q5GH72]	3.65	below the threshold	4.19	4.02	below the threshold	4.96	4.84	4.94	below the threshold	below the threshold	3.8	below the threshold	below the threshold	below the threshold	below the threshold	below the threshold	below the threshold	4.26	4.45	4.44	pKd (MPP2, Q14168): below the threshold; pKd (MPP6, Q9NZW5): below the threshold; pKd (NHERF2_2, Q15599): 4.33; pKd (NHERF3_3, Q5T2W1): below the threshold; pKd (PCLO, Q9Y6V0): below the threshold; pKd (PDLIM1, O00151): below the threshold; pKd (SNTA1, Q13424): 4.98; pKd (TJP2_1, Q9UDY2): below the threshold
WRSKRTDTLL [RAMP3, O60896]	below the threshold	below the threshold	4.27	4.03	below the threshold	3.84	3.51	4.02	below the threshold	4.7	below the threshold	below the threshold	below the threshold	below the threshold	below the threshold	below the threshold	below the threshold	3.91	3.69	4.37	pKd (MPP2, Q14168): below the threshold; pKd (MPP6, Q9NZW5): 3.75; pKd (NHERF2_2, Q15599): 4.05; pKd (NHERF3_3, Q5T2W1): 3.48; pKd (PCLO, Q9Y6V0): below the threshold; pKd (PDLIM1, O00151): below the threshold; pKd (SNTA1, Q13424): 3.59; pKd (TJP2_1, Q9UDY2): below the threshold
SKSLERATQL [COMMD3, Q9UBI1]	4.16	below the threshold	below the threshold	4.79	below the threshold	3.55	3.83	below the threshold	below the threshold	4.33	3.84	below the threshold	below the threshold	below the threshold	3.95	below the threshold	below the threshold	3.94	3.79	3.75	pKd (MPP2, Q14168): below the threshold; pKd (MPP6, Q9NZW5): below the threshold; pKd (NHERF2_2, Q15599): 4.58; pKd (NHERF3_3, Q5T2W1): 3.8; pKd (PCLO, Q9Y6V0): below the threshold; pKd (PDLIM1, O00151): below the threshold; pKd (SNTA1, Q13424): 4.06; pKd (TJP2_1, Q9UDY2): 3.72
